Laboratory results as given in publication PMC12075633.
“And” between values parts separate entries of the source, which are not always exact repeats. Equal entries are not always repeated.

Legend:
[1] = molecular target: ECF module (EcfA_K122C, EcfA', EcfT) of the C-sensor, cysteine-less background, fluorophore-labelled (Lactobacillus delbrueckii); assay: FRET or BRET; single-molecule FRET, TIRF; labelled complex in immobilised liposomes (protein to lipid 1:10.000) with 10 mM Mg-ATP outside (or on both sides), with or without 10 µM vitamin B12 in the lumen; 50 mM KPi pH 7.5, 150 mM NaCl; 90 s recordings, 200 ms frames
[2] = molecular target: ECF module (EcfA_K122C, EcfA', EcfT) of the C-sensor, cysteine-less background, fluorophore-labelled (Lactobacillus delbrueckii); assay: FRET or BRET; single-molecule FRET, TIRF; labelled complex reconstituted in liposomes (E. coli polar lipids:PC:DOPE-biotin, protein to lipid 1:10.000) immobilised by biotin-neutravidin; 50 mM KPi pH 7.5, 150 mM NaCl; apo, also with Mg-AMP-PNP, Mg-ADP or 10 µM vitamin B12 alone; 90 s recordings, 200 ms frames

CbrT_A182C (S-component of the C-sensor, cysteine-less background, fluorophore-labelled) (natural protein)
half-life to the first dissociation event after ATP addition (ATPout + B12in) [1]: 7 s
half-life to the first dissociation event after ATP addition (ATPout) [1]: 10 s
mean dwell time of the associated state (10 mM Mg-ATP outside; with or without vitamin B12, not told which) [1]: 7.9 s and 8.7 s
mean dwell time of the dissociated state (10 mM Mg-ATP outside, with and without vitamin B12) [1]: 20 s
percent of dynamic traces (association/dissociation transitions), 10 mM Mg-ATP outside [1]: 22.1%
percent of dynamic traces (association/dissociation transitions), ATP outside and 10 µM vitamin B12 in the lumen [1]: 18.7%
percent of dynamic traces (association/dissociation transitions), Mg-ATP on both sides of the membrane [1]: 13.2%
percent of traces static at the low-FRET value 0.08 (dissociated), 10 mM Mg-ATP outside [1]: 19.6%
percent of recorded traces with a dissociation (apo and AMP-PNP conditions) [2]: 1%
